These results are taken from IntAct's records for PubMed 12852788.

First the molecules themselves.
B1: Lymphocyte antigen 6 complex locus protein G6f (Homo sapiens), Q5SQ64 (parent)
chain: MAVLFLLLFLCGTPQAADNMQAIYVALGEAVELPCPSPPTLHGDEHLSWFCSPAAGSFTTLVAQVQVGRPAPDPGKPGRESRLRLLGNYSLWLEGSKEEDAGRYWCAVLGQHHNYQNWRVYDVLVLKGSQLSARAADGSPCNVLLCSVVPSRRMDSVTWQEGKGPVRGRVQSFWGSEAALLLVCPGEGLSEPRSRRPRIIRCLMTHNKGVSFSLAASIDASPALCAPSTGWDMPWILMLLLTMGQGVVILALSIVLWRQRVRGAPGRDASIPQFKPEIQVYENIHLARLGPPAHKPR

The variants in the first experiment derive from B1. The conditions noted are these: with grb7_human GRB7, Q14451.
Chain of grb7_human GRB7, Q14451 (Q14451 whole entry): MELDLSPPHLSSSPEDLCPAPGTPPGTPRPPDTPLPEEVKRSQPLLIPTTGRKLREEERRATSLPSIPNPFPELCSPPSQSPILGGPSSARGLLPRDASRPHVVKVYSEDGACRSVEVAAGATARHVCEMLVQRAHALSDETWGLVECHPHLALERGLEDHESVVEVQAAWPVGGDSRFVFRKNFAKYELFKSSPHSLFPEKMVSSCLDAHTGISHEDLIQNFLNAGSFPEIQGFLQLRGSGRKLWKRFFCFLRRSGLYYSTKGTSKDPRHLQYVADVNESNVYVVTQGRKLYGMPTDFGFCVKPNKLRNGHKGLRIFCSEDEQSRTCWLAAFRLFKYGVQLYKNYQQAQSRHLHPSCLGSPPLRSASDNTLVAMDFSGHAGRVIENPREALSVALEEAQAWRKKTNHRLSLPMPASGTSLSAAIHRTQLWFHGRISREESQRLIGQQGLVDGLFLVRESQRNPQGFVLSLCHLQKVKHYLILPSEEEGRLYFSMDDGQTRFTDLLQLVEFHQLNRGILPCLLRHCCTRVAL
Turning to Y281F, the “effect of a mutation on the interaction” value is recorded as “disrupting interaction strength”.

In the next experiment the parent is B1. The conditions noted are these: with grb2_human GRB2, P62993.
Chain of grb2_human GRB2, P62993 (P62993 whole entry, looked up): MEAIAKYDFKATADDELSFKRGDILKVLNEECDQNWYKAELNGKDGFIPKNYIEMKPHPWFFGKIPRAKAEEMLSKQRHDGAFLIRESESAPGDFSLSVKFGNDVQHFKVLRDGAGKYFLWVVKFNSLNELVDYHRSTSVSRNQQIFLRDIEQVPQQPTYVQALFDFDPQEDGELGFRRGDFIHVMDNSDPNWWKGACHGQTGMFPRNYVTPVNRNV
As to Y281F, the “effect of a mutation on the interaction” value is “disrupting interaction strength”.
